Data taken from the Immune Epitope Database (IEDB).

Key:
[1] = target: HLA-A*03:01; experiment: IEDB peptide-MHC binding, purified MHC/competitive/fluorescence; filed as Kd, often an IC50 or EC50 that approximates it; ≥ and ≤ were set here for values at or beyond the usual limits of such assays
[2] = target: HLA-A*31:01; experiment: as above
[3] = target: HLA-A*02:03; experiment: IEDB peptide-MHC binding, purified MHC/direct/fluorescence; filed as Kd, often an IC50 or EC50 that approximates it; ≥ and ≤ were set here for values at or beyond the usual limits of such assays; conditions: source organism: Mycobacterium tuberculosis F11
[4] = target: HLA-A*02:11; experiment: as above
[5] = target: HLA-A*69:01; experiment: as above
[6] = target: HLA-A*02:01; experiment: as above
[7] = target: HLA-A*03:01; experiment: as above
[8] = target: HLA-A*68:02; experiment: as above; conditions: source organism: Orthohantavirus tulaense
[9] = target: HLA-A*26:01; experiment: IEDB peptide-MHC binding, purified MHC/competitive/fluorescence; filed as Kd, often an IC50 or EC50 that approximates it; ≥ and ≤ were set here for values at or beyond the usual limits of such assays; conditions: source organism: Orthohantavirus tulaense
[10] = target: HLA-A*69:01; experiment: as above; conditions: source organism: Orthohantavirus tulaense
[11] = target: HLA-B*18:01; experiment: as above; conditions: source organism: Orthohantavirus tulaense
[12] = target: HLA-B*27:03; experiment: as above; conditions: source organism: Orthohantavirus tulaense
[13] = target: HLA-B*51:01; experiment: as above; conditions: source organism: Orthohantavirus tulaense
[14] = target: HLA-B*57:01; experiment: as above; conditions: source organism: Orthohantavirus tulaense
[15] = target: HLA-A*01:01; experiment: IEDB peptide-MHC binding, purified MHC/direct/fluorescence; filed as Kd, often an IC50 or EC50 that approximates it; ≥ and ≤ were set here for values at or beyond the usual limits of such assays; conditions: source organism: West Nile virus
[16] = target: HLA-A*11:01; experiment: as above
[17] = target: HLA-B*07:02; experiment: as above; conditions: source organism: West Nile virus
[18] = target: HLA-B*15:01; experiment: as above; conditions: source organism: West Nile virus
[19] = target: HLA-B*18:01; experiment: as above; conditions: source organism: West Nile virus
[20] = target: HLA-B*27:05; experiment: as above; conditions: source organism: West Nile virus
[21] = target: HLA-B*44:02; experiment: as above; conditions: source organism: West Nile virus
[22] = target: HLA-B*46:01; experiment: as above; conditions: source organism: West Nile virus
[23] = target: HLA-B*48:01; experiment: as above; conditions: source organism: West Nile virus
[24] = target: HLA-B*57:01; experiment: as above; conditions: source organism: West Nile virus
[25] = target: HLA-B*58:01; experiment: as above; conditions: source organism: West Nile virus
[26] = target: HLA-A*29:02; experiment: IEDB peptide-MHC binding, purified MHC/competitive/fluorescence; filed as Kd, often an IC50 or EC50 that approximates it; ≥ and ≤ were set here for values at or beyond the usual limits of such assays
[27] = target: HLA-A*01:01; experiment: as above; conditions: source organism: Xenopus laevis
[28] = target: HLA-A*02:12; experiment: IEDB peptide-MHC binding, purified MHC/direct/fluorescence; filed as Kd, often an IC50 or EC50 that approximates it; ≥ and ≤ were set here for values at or beyond the usual limits of such assays
[29] = target: HLA-A*02:19; experiment: as above
[30] = target: HLA-A*02:17; experiment: IEDB peptide-MHC binding, purified MHC/competitive/radioactivity; filed as Kd, often an IC50 or EC50 that approximates it; ≥ and ≤ were set here for values at or beyond the usual limits of such assays; conditions: source organism: Dengue virus 1 Singapore/S275/1990
[31] = target: HLA-B*57:01; experiment: as above
[32] = target: HLA-B*15:42; experiment: IEDB peptide-MHC binding, purified MHC/competitive/fluorescence; filed as Kd, often an IC50 or EC50 that approximates it; ≥ and ≤ were set here for values at or beyond the usual limits of such assays; conditions: source organism: human gammaherpesvirus 4
[33] = target: HLA-B*45:06; experiment: as above; conditions: source organism: human gammaherpesvirus 4
[34] = target: HLA-B*83:01; experiment: as above; conditions: source organism: human gammaherpesvirus 4
[35] = target: HLA-B*53:01; experiment: IEDB peptide-MHC binding, purified MHC/competitive/radioactivity; filed as Kd, often an IC50 or EC50 that approximates it; ≥ and ≤ were set here for values at or beyond the usual limits of such assays; conditions: source organism: Dengue virus 3 Martinique/1243/1999
[36] = source organism: Escherichia coli
[37] = source organism: West Nile virus
[38] = source organism: Influenza A virus (A/swine/Bakum/5/95(H1N1))
[39] = source organism: Bacillus anthracis str. A0488
[40] = source organism: Dengue virus 2 Thailand/16681/84
[41] = source organism: Influenza A virus
[42] = source organism: Escherichia coli O157:H7
[43] = source organism: Influenza A virus (A/quail/Hong Kong/FY298/00(H9N2))
[44] = source organism: Orthohantavirus hantanense
[45] = source organism: Hantaanvirus CGRn93P8
[46] = source organism: Dengue virus 3 Martinique/1243/1999

Sequence ALRGVAVGR has a Kd [1, 36] of 9.7 nM and a Kd [2, 36] of 3.8 nM.
For FLFGDDDAL, the Kd [3] was 2 nM, the Kd ([4]; source organism: Mycobacterium tuberculosis F11) was 3 nM and the Kd ([5]; source organism: Mycobacterium tuberculosis) was 2110 nM.
Work on FMFNELLAL yielded a Kd ([6]; source organism: Orthohantavirus puumalaense) of 0.2 nM, a Kd ([7]; source organism: Orthohantavirus tulaense) of at least 20000 nM and a Kd [8] of at least 20000 nM. The Kd [9] was at least 20000 nM, the Kd [10] was at least 20000 nM and the Kd [11] was at least 20000 nM. For the same sequence, the Kd [12] was at least 20000 nM, the Kd [13] was at least 20000 nM and the Kd [14] was at least 20000 nM.
In the case of FTRYRKEAI, the Kd [15] is reported as at least 20000 nM, the Kd [6, 37] is reported as at least 20000 nM and the Kd [7, 37] is reported as at least 20000 nM. It also gave a Kd [16, 37] of at least 20000 nM, a Kd [17] of at least 20000 nM and a Kd [18] of at least 20000 nM. It also gave a Kd [19] of at least 20000 nM, a Kd [20] of at least 20000 nM and a Kd [21] of at least 20000 nM. The Kd [22] was at least 20000 nM, the Kd [23] was at least 20000 nM and the Kd [24] was at least 20000 nM. For the same sequence, the Kd [25] was at least 20000 nM.
GINDRNFWR gave a Kd [7, 38] of 4140 nM, a Kd [16, 38] of 148 nM and a Kd ([2]; source organism: Influenza A virus (A/swine/Italy/1509-6/97(H1N1))) of 3.17 nM.
With GIWHGPYWH the Kd ([26]; source organism: Clostridium botulinum E3 str. Alaska E43) was 231 nM.
Work on GSASPTPPY yielded a Kd [27] of 42.7 nM and a Kd ([26]; source organism: Xenopus laevis) of 3.7 nM.
IVNMGNPDY showed a Kd ([26]; source organism: Encephalitozoon cuniculi GB-M1) of 54.4 nM.
For KLSSMAAER, the Kd [1, 39] was 88 nM and the Kd [2, 39] was 16 nM.
Work on KMDIGVPLL yielded a Kd [4, 40] of at most 1 nM, a Kd [28, 40] of 4 nM and a Kd [29, 40] of 16 nM. The Kd ([5]; source organism: Dengue virus 1 Singapore/S275/1990) was at least 20000 nM and the Kd [30] was 1250 nM.
KRVQEVKGY showed a Kd [20] of 782 nM and a Kd [23] of at least 20000 nM.
In the case of KTTLSLDYAW, the Kd ([31]; source organism: Dengue virus 1 Brazil/97-11/1997) is reported as 0.847 nM.
For LIAPRGYFK, the Kd [1, 41] was 10.7 nM and the Kd [2, 41] was 33.9 nM.
In the case of MLRLWWIPY, the Kd [7, 42] is reported as 10100 nM, the Kd [16, 42] is reported as at least 20000 nM and the Kd ([2]; source organism: Escherichia coli HS) is reported as at least 20000 nM.
In the case of NTMTKDAER, the Kd [7, 43] is reported as at least 20000 nM, the Kd [16, 43] is reported as at least 20000 nM and the Kd ([2]; source organism: Influenza A virus (A/Fort Monmouth/1/1947-mouse adapted(H1N1))) is reported as 108 nM.
With QMISPVMSV the Kd [6, 44] was at most 1 nM, the Kd [4, 45] was at most 1 nM and the Kd [28, 45] was 3 nM. For the same sequence, the Kd [29, 45] was 7 nM and the Kd [5, 44] was 1.2 nM.
In the case of RPRPRTPEW, the Kd [32] is reported as at least 5000 nM, the Kd [33] is reported as at least 5000 nM and the Kd [34] is reported as 426 nM.
In the case of RVDGLELKK, the Kd ([16]; source organism: Yellow fever virus 17D) is reported as 18.8 nM and the Kd ([2]; source organism: Yellow fever virus) is reported as at least 20000 nM.
SSSMRKTDW showed a Kd [31, 46] of 416 nM.
Sequence STSLLFLNDM has a Kd ([31]; source organism: Dengue virus 4 Philippines/H241/1956) of 86.4 nM.
TALFSGVSW gave a Kd [35] of 49.8 nM and a Kd [31, 46] of 0.589 nM.
VGGDIRTLY showed a Kd ([26]; source organism: Coxiella burnetii RSA 331) of 68.6 nM.
